These results are taken from article PMC6834639, “Molecular basis for chirality-regulated Aβ self-assembly and receptor recognition revealed by ion mobility-mass spectrometry” (Nature Communications, 2019).

Data set [1] addresses tetrameric transthyretin (TTR) (UniProt P02766 21-147). Put plainly: SPR; OpenSPR (Nicoya), TTR immobilised on a COOH chip by amine coupling; Aβ peptides injected (Aβ C-terminals 2.4-48 µM; Aβ (1–40/42) 0.2-20 µM); PBS pH 6.8 with 0.005% Tween 20; 150 s association, 400 s dissociation; 1:1 interaction model. The note with it: both partners purified. For orientation: Surface plasmon resonance follows binding to a sensor surface in real time, without labels.

In data set [2] the target is T1, human serum albumin (HSA) (human, UniProt P02768 25-609).
T1 construct: serum albumin, human; source: bought: Sigma-Aldrich
Put plainly: native MS; native IM-MS with collision-induced unfolding (CIU); 100 mM NH4OAc; Aβ (1–16) 15 µM, Cu2+ 20 µM, BSA/HSA 7.5 µM; 37 °C incubation. To be noted: both partners purified.

For data set [3], the target named is T2, bovine serum albumin (BSA) (bovine, UniProt P02769 25-607).
T2 construct: serum albumin, bovine; source: bought: Sigma-Aldrich
Described as above. The note with it: both partners purified.

Data set [4] concerns the molecule itself. Put plainly: native MS; IM-MS of oligomers of one Aβ fragment alone; Aβ (1–10) and Aβ (1–16) 600 µM, 10 mM NH4OAc; oligomers of many sizes seen, a printed size is the largest one.
Data set [5] concerns the molecule itself. Kind of data set: native MS; IM-MS of YGGFL aggregates; mass spectrum, concentration dependence and growth curve.
The target of data set [6] is T1, human serum albumin (HSA). Kind of data set: native MS; native IM-MS with CIU of HSA-Aβ (1–10) complexes, charge states 15+ to 18+. The note with it: both partners purified.

Square brackets hold non-standard residues; d marks the D form. Ends that are not written are not given here.

T2 sequence (P02769 25-607): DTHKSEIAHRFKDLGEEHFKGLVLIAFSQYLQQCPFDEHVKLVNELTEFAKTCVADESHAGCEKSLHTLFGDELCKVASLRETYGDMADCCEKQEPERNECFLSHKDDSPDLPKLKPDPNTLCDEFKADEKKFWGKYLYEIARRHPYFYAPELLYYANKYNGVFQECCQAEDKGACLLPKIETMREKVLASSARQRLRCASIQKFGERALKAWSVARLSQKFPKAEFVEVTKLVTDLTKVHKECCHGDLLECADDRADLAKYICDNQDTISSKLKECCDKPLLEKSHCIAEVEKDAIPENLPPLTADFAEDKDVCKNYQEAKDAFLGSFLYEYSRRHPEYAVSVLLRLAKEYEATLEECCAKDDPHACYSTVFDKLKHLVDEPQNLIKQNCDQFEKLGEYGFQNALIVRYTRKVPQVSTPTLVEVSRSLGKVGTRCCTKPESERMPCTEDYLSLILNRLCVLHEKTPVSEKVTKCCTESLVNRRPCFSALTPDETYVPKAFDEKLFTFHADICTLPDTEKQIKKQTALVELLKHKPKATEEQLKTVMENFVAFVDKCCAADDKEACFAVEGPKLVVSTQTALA

B1: dD Aβ (17–36) (peptide)
peptide: LVFFAE[dD]VGSNKGAIIGLMV
notes: amyloid beta residues 17-36 with D-isomerized Asp; also called single D-isomerized Aβ (17–36); source: bought: Sangon Biotech Co., Ltd. (Shanghai, China)
Usually Kd stands for the free concentration of one partner at which half of the binding sites on the other are occupied at equilibrium, for simple one-to-one binding. Low values mean higher affinity, high ones lower affinity. Usually koff stands for the first-order rate constant of dissociation. Broadly, the kon is the second-order rate constant of association. A lower kon goes with slow association. In data set [1], B1 displayed a Kd of 149 µM, a koff of 0.132 s⁻¹ and an on-rate (kon) of 990 M⁻¹ s⁻¹.

B2: WT Aβ (1–16) (peptide)
peptide: DAEFRHDSGYEVHHQK
notes: amyloid beta residues 1-16, all L; also called wild type Aβ (1–16); source: bought: Sangon Biotech Co., Ltd. (Shanghai, China)
As for B2, the binding result in data set [2], in data set [3] and in data set [4] was “binds” throughout.

B3: dS Aβ (17–36) (peptide)
peptide: LVFFAEDVG[dS]NKGAIIGLMV
notes: amyloid beta residues 17-36 with D-isomerized Ser; also called single D-isomerized Aβ (17–36); source: bought: Sangon Biotech Co., Ltd. (Shanghai, China)
Take B3: in data set [1], the Kd is 118 µM, the koff amounted to 0.114 s⁻¹ and the kon came to 1160 M⁻¹ s⁻¹.

B4: dDdS Aβ (17–36) (peptide)
peptide: LVFFAE[dD]VG[dS]NKGAIIGLMV
notes: amyloid beta residues 17-36 with D-isomerized Asp and Ser; also called co-isomerized Aβ (17–36); source: bought: Sangon Biotech Co., Ltd. (Shanghai, China)
In data set [1], B4 showed a dissociation constant (Kd) of 83.1 µM, a koff of 0.102 s⁻¹ and a kon of 1930 M⁻¹ s⁻¹.

B5: YGGFL (peptide)
peptide: YGGFL
notes: YGGFL, used as a known model of isotropic growth
For the molecule B5, in data set [5], the binding result was “binds”.

B6: WT Aβ (17–36) (peptide)
peptide: LVFFAEDVGSNKGAIIGLMV
notes: amyloid beta residues 17-36, all L; also called Aβ C-terminal fragment; source: bought: Sangon Biotech Co., Ltd. (Shanghai, China)
In data set [1], B6 showed a Kd of 11.5 µM, a koff of 0.008 s⁻¹ and a kon of 690 M⁻¹ s⁻¹.

B7: WT Aβ (1–10) (peptide)
peptide: DAEFRHDSGY
notes: amyloid beta residues 1-10, all L; also called Aβ N-terminal fragment; source: bought: Sangon Biotech Co., Ltd. (Shanghai, China)
For the molecule B7, in data set [6], the binding result is “binds”.
